Laboratory results: patent US20240150440A1 (LUMEN BIOSCIENCE, published 2024)
Read-outs that look alike come from different tables or passages of the source.

What was measured:
[1] = biological target: SARS-COV-2 Wuhan Reference RBD (SARS-CoV-2, UniProt P0DTC2 319-541); test: ELISA, RBD coated
[2] = biological target: T1, recombinant SARS-CoV-2 RBD with C-terminal AviTag (SARS-CoV-2, UniProt P0DTC2 319-541); test: BLI, biotinylated RBD on streptavidin biosensors
[3] = biological target: T1, recombinant SARS-CoV-2 RBD with …; test: ELISA, competition with coated ACE2-Fc for RBD [Cont. 7]
[4] = biological target: T1, recombinant SARS-CoV-2 RBD with …; test: ELISA, competition with coated ACE2-Fc for RBD
[5] = biological target: T1, recombinant SARS-CoV-2 RBD with …
[6] = biological target: T1, recombinant SARS-CoV-2 RBD with …; remark: listed apart in the source
[7] = biological target: T1, recombinant SARS-CoV-2 RBD with …; test: ELISA, competition with coated ACE2-Fc for RBD [Cont. 2]
[8] = biological target: T1, recombinant SARS-CoV-2 RBD with …; remark: listed apart in the source
[9] = biological target: T1, recombinant SARS-CoV-2 RBD with …; remark: listed apart in the source
[10] = biological target: T1, recombinant SARS-CoV-2 RBD with …; remark: listed apart in the source
[11] = biological target: T1, recombinant SARS-CoV-2 RBD with …; remark: listed apart in the source
[12] = biological target: T1, recombinant SARS-CoV-2 RBD with …; test: ELISA, competition with coated ACE2-Fc for RBD [Cont. 4]
[13] = biological target: T1, recombinant SARS-CoV-2 RBD with …; test: BLI, biotinylated RBD on streptavidin biosensors [Cont. 8]
[14] = biological target: T1, recombinant SARS-CoV-2 RBD with …; test: ELISA, competition with coated ACE2-Fc for RBD [Cont. 8]

B1: PP916 MBP-5HVZ-S3b-A8-H6 (VHH)
VHH: QVQLVESGGGLVQPGGSLRLSCAASGSIISRVKVHWFRQAPGKSREWVAGIDSGTASYYSDSVKGRFTISRDNAKNTVYLQMNSLKPEDTAVYYCAAENRGYGVDWGQGTQVTVSS
notes: Form: Dimer
[1]
  EC50: 1.19 nM
[2]
  Kd: 12.1 nM
[3]
  IC50: 2 nM

B2: PP1143 MBP-5HVZ-PAPA-R2b-D5-H6 (VHH)
VHH: QVQLVESGGGLVQPGGSLRLSCAASGYADEINMVHWYRQAPGKGREFVAAIASGGSTFYADSVKGRFTISRDNAKNTVYLQMNSLKPEDTAVYYCAAIPRPSLSYAHDYAYWGQGTQVTVSS
notes: Form: Dimer
[4]
  IC50: 8.4 nM

B3: PP1155 MPB-scTRP-PAPA-R2b-D5-H6 (VHH)
VHH: B2 VHH
notes: Form: Trimer
[4]
  IC50: 46.5 nM

B4: PP1898 Cerberbody (1-R2B-D5 and 2-S3b-C8) (other, not shown: large carriers; small tags and cut ends)
VHH 1: QVQLVESGGGLVQPGGSLRLSCAASGSIENIERMHWYRQAPGKQRELVAVIDSGGTTRYADSVKGRFTISRDNAKNTVYLQMNSLKPEDTAVYYCAAVWLTNAESTQEYWGQGTQVTVSS
VHH 2: B2 VHH
[5]
  Kd: 0.4 nM
  koff: 0.000218 s⁻¹
  kon: 540000 M⁻¹ s⁻¹

B5: R2B-D5 monomer (PP805) (VHH, not shown: large carriers; small tags and cut ends)
VHH: B2 VHH
[6]
  Kd: 10 nM
  koff: 0.00226 s⁻¹
  kon: 226000 M⁻¹ s⁻¹

B6: PP1131 MBP-4B0F-PAPA-R2b-D5-H6 (VHH)
VHH: B2 VHH
notes: Form: Heptamer
[4]
  IC50: 14.5 nM

B7: PP1148 MBP-5HVZ-PAPA-R5a-C5-H6 (VHH)
VHH: QVQLVESGGGLVQPGGSLRLSCAASGDIFSINALHWFRQAPGKQREEVAAITSGGSTGYADSVKGRFTISRDNAKNTVYLQMNSLKPEDTAVYYCAAQQARGGLDSDYWGQGTQVTVSS
notes: Form: Dimer
[1]
  EC50: 0.3 nM
[7]
  IC50: 1.1 nM

B8: PP1160 MPB-scTRP-PAPA-R5a-C5-H6 (VHH)
VHH: B7 VHH
notes: Form: Trimer
[7]
  IC50: 2.9 nM

B9: PP1136 MBP-4B0F-PAPA-R5a-C5-H6 (VHH)
VHH: B7 VHH
notes: Form: Heptamer
[7]
  IC50: 1.8 nM

B10: PP1176 MBP-5HVZ-PAPA-R2a-F3-H6 (VHH)
VHH: QVQLVESGGGLVQPGGSLRLSCAASGSITSINWMHWFRQAPGKDREGVASISQTGRGSYADSVKGRFTISRDNAKNTVYLQMNSLKPEDTAVYYCAAASRTGTPYNYWGQGTQVTVSS
notes: Form: Dimer
[1]
  EC50: 0.29 nM
[4]
  IC50: 10.4 nM

B11: PP1177 MPB-scTRP-PAPA-R2a-F3-H6 (VHH)
VHH: B10 VHH
notes: Form: Trimer
[4]
  IC50: 83.6 nM

B12: MBp-5HVZ-R2C-B3-H6 (VHH, not shown: large carriers; small tags and cut ends)
VHH: QVQLVESGGGLVQPGGSLRLSCAASGTYASYETIAWYRQAPGKQREKVARITGAGSSFYADSVKGRFTISRDNAKNTVYLQMNSLKPEDTAVYYCNADSIPPALRAANTGYWGQGTQVTVSS
[8]
  IC50: 1.4 nM
  Kd: 33 nM

B13: PP1896 Cerberbody (2-R2B-D5 and 1-S3b-C8) (other, not shown: large carriers)
chain 1: QVQLVESGGGLVQPGGSLRLSCAASGYADEINMVHWYRQAPGKGREFVAAIASGGSTFYADSVKGRFTISRDNAKNTVYLQMNSLKPEDTAVYYCAAIPRPSLSYAHDYAYWGQGTQVTVSSHHHHHH
chain 2: QVQLVESGGGLVQPGGSLRLSCAASGSIENIERMHWYRQAPGKQRELVAVIDSGGTTRYADSVKGRFTISRDNAKNTVYLQMNSLKPEDTAVYYCAAVWLTNAESTQEYWGQGTQVTVSSTVILEYAHRLSQDILSDALQQWASHHHHHHHH
[9]
  Kd: < 0.001 nM
  koff: < 1e-07 s⁻¹
  kon: 248000 M⁻¹ s⁻¹

B14: PP1897 Cerberbody (3-S3b-C8) (other, not shown: large carriers)
chain 1: QVQLVESGGGLVQPGGSLRLSCAASGSIENIERMHWYRQAPGKQRELVAVIDSGGTTRYADSVKGRFTISRDNAKNTVYLQMNSLKPEDTAVYYCAAVWLTNAESTQEYWGQGTQVTVSSHHHHHH
chain 2: B13 chain 2
[10]
  Kd: 0.73 nM
  koff: 0.000382 s⁻¹
  kon: 521000 M⁻¹ s⁻¹

B15: MBP-5HVZ-R2E-D2-H6 (VHH, not shown: large carriers; small tags and cut ends)
VHH: QVQLVESGGGLVQPGGSLRLSCAASGHQLSTNATHWFRQAPGKNREFVASIGSGSSSYYADSVKGRFTISRDNAKNTVYLQMNSLKPEDTAVYYCTALGGDELDGMTYDYWGQGTQVTVSS
[11]
  IC50: 6.8 nM
  Kd: 19.1 nM

B16: MBP-R2C-F6-H6 (VHH, not shown: large carriers; small tags and cut ends)
VHH: QVQLVESGGGLVQPGGSLRLSCAASGRILAANIVHWYRQAPGKEREGVAGITTGGSNYYSDSVKGRFTISRDNAKNTVYLQMNSLKPEDTAVYYCNALGLGSASGSYESWGQGTQVTVSS
[8]
  Kd: ~3600 nM

B17: PP913 MBP-5HVZ-S3a-C5-H6 (VHH)
VHH: QVQLVESGGGLVQPGGSLRLSCAASGSIKNTNAMHWFRQAPGKDREWVAGITSGGNSNYGDSVKGRFTISRDNAKNTVYLQMNSLKPEDTAVYYCAAFGYRYDQDYTYDYWGQGTQVTVSS
notes: Form: Dimer
[1]
  EC50: 1.53 nM
[2]
  Kd: 1.42 nM
[3]
  IC50: 2.8 nM

B18: MBP-5HVZ-R2D-A6-H6 (VHH, not shown: large carriers; small tags and cut ends)
VHH: QVQLVESGGGLVQPGGSLRLSCAASGSGASIGAMHWFRQAPGKGREWVASITSAGNTYYGDSVKGRFTISRDNAKNTVYLQMNSLKPEDTAVYYCNALAGANYESQWEEYNYWGQGTQVTVSS
[11]
  IC50: 6.3 nM
  Kd: 19.6 nM

B19: PP1151 MBP-5HVZ-PAPA-R5d-B5-H6 (VHH)
VHH: QVQLVESGGGLVQPGGSLRLSCAASGSRDSIVAMHWYRQAPGKGREGVAGITSRWVTYYADSVKGRFTISRDNAKNTVYLQMNSLKPEDTAVYYCNAPVYYDTEWYDIWGQGTQVTVSS
notes: Form: Dimer
[12]
  IC50: 23.1 nM

B20: MBP-5HVZ-R2A-C5-H6 (VHH, not shown: large carriers; small tags and cut ends)
VHH: QVQLVESGGGLVQPGGSLRLSCAASGTWGNIQYLSWFRQAPGKRREFVAAITPNNGTNYADSVKGRFTISRDNAKNTVYLQMNSLKPEDTAVYYCTAVLWYTTKEGPYDYWGQGTQVTVSS
[8]
  IC50: 13.3 nM

B21: PP934 MBP-5HVZ-S3a-H2-H6 (VHH)
VHH: QVQLVESGGGLVQPGGSLRLSCAASGAAFSKNALHWFRQAPGKGREWVASITSGSGTQYMDSVKGRFTISRDNAKNTVYLQMNSLKPEDTAVYYCAALAYSGGYDYWGQGTQVTVSS
notes: Form: Dimer
[1]
  EC50: 1.07 nM
[13]
  Kd: 18.4 nM
[14]
  IC50: 2.2 nM

B22: MBP-R2C-G6-H6 (VHH, not shown: large carriers; small tags and cut ends)
VHH: QVQLVESGGGLVQPGGSLRLSCAASGSIYKYSDVHWFRQAPGKAREAVALLTGAGTTIYGDSVKGRFTISRDNAKNTVYLQMNSLKPEDTAVYYCAAGQGFKATRTFDSWGQGTQVTVSS
[11]
  Kd: ~3900 nM

B23: PP927 MBP-5HVZ-R1i-C8-H6 (VHH)
VHH: QVQLVESGGGLVQPGGSLRLSCAASGRQFGAWRMHWYRQAPGKQREWVAGITSGTSGNYADSVKGRFTISRDNAKNTVYLQMNSLKPEDTAVYYCAATSHTTYHAEYWGQGTQVTVSS
notes: Form: Dimer
[1]
  EC50: 1.43 nM
[13]
  Kd: 25.2 nM
[14]
  IC50: 111 nM

B24: PP931 MBP-5HVZ-R5a-F5-H6 (VHH)
VHH: QVQLVESGGGLVQPGGSLRLSCAASGYHASILAMHWVRQAPGKEREWVASMTWSDMTQYSDSVKGRFTISRDNAKNTVYLQMNSLKPEDTAVYYCAATYVTRDRPWTHWGQGTQVTVSS
notes: Form: Dimer
[1]
  EC50: 1.93 nM
[13]
  Kd: 11.9 nM
[14]
  IC50: 5.6 nM

B25: PP1149 MBP-5HVZ-PAPA-R5a-E5-H6 (VHH)
VHH: QVQLVESGGGLVQPGGSLRLSCAASGYDFDILRMAWFRQAPGKEREMVAAITSAESVNYEDSVKGRFTISRDNAKNTVYLQMNSLKPEDTAVYYCATYDYTDDYGYASWGQGTQVTVSS
notes: Form: Dimer
[1]
  EC50: 2.5 nM
[7]
  IC50: 14.2 nM
